From patent US20210107988A1 (Genmab, published 2021) come the findings set out here.

Residue numbers refer to the chain shown, from its start. In names and notes the source's numbering stands.

For assay [1], the target named is T1, dimeric, His-tagged, C-terminally biotinylated ECD of FcγRIIA allotype 131H (Homo sapiens (Human), UniProt P12318 34-215, C-terminally biotinylated).
T1 sequence: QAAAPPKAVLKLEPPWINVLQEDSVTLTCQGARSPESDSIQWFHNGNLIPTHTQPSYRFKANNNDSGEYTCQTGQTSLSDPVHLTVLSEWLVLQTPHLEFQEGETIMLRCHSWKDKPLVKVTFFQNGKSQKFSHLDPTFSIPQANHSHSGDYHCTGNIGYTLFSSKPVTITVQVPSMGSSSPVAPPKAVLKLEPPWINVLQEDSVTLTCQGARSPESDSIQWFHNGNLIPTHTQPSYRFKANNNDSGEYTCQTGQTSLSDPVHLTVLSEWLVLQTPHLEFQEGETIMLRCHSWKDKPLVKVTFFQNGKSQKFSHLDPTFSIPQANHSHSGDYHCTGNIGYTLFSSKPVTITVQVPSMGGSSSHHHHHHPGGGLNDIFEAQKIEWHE
The experiment in a line: FcγR ELISA. Background: ELISA stands for enzyme-linked immunosorbent assay.

Assay [2] has as its target dimeric, His-tagged, C-terminally biotinylated ECD of FcγRIIIA allotype 158F (C-terminally biotinylated). The experiment in a line: FcγR ELISA.
The target of assay [3] is T2, dimeric, His-tagged, C-terminally biotinylated ECD of FcγRIIIA allotype 158V (C-terminally biotinylated).
T2 construct: also called diFCGR3A-158V-HisBAP; IIIA-158V
Put plainly: FcγR ELISA.

Assay [4] has as its target T3, FcRnECDHis-B2M-BIO (biotinylated extracellular domain of human FcRn with a C-terminal His tag as dimer with … (human, UniProt P55899 24-297)); P61769 21-119, biotinylated (site not stated)).
T3 construct: Coated on Streptawell plates at 5 µg/mL; also called FcRnhsECDHis
The experiment in a line: FcRn ELISA, pH 6.0.

Assay [5] concerns the target T3, FcRnECDHis-B2M-BIO (biotinylated …). Put plainly: FcRn ELISA, pH 7.4.

T3 sequence (P55899 other isoform, or with tags, fused parts or gaps limits assumed, chain 1 of 2): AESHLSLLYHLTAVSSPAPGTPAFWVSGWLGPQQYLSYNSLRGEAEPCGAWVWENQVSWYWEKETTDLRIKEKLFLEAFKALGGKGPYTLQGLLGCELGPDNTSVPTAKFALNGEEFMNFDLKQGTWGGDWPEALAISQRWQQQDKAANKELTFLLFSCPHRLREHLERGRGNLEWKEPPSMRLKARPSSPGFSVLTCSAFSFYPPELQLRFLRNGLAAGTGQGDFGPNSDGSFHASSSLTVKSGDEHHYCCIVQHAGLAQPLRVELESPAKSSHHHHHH
T3 sequence (P61769 21-119 limits assumed, chain 2 of 2): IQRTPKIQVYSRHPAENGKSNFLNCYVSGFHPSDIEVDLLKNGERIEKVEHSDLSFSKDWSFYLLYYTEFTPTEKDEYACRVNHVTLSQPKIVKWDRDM

B1: IgG1-11B8-E430G-S440K with introduced mutation G237A (antibody, name in EU numbering)
heavy: EVQLVQSGGGLVHPGGSLRLSCTGSGFTFSYHAMHWVRQAPGKGLEWVSIIGTGGVTYYADSVKGRFTISRDNVKNSLYLQMNSLRAEDMAVYYCARDYYGAGSFYDGLYGMDVWGQGTTVTVSSASTKGPSVFPLAPSSKSTSGGTAALGCLVKDYFPEPVTVSWNSGALTSGVHTFPAVLQSSGLYSLSSVVTVPSSSLGTQTYICNVNHKPSNTKVDKRVEPKSCDKTHTCPPCPAPELLGAPSVFLFPPKPKDTLMISRTPEVTCVVVDVSHEDPEVKFNWYVDGVEVHNAKTKPREEQYNSTYRVVSVLTVLHQDWLNGKEYKCKVSNKALPAPIEKTISKAKGQPREPQVYTLPPSREEMTKNQVSLTCLVKGFYPSDIAVEWESNGQPENNYKTTPPVLDSDGSFFLYSKLTVDKSRWQQGNVFSCSVMHGALHNHYTQKKLSLSPGK
light: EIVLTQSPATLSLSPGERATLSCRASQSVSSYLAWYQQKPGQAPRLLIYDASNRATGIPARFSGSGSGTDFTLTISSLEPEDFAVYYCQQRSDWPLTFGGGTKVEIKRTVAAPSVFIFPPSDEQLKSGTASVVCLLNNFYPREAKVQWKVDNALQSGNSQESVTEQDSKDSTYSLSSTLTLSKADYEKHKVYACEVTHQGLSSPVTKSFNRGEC
notes: also called IgG1-11B8-E430G-S440K-G237A
With B1, the binding result in assay [1], in assay [2] and in assay [3] was “no binding (tested: 20 µg/mL)” throughout.

B2: IgG1-b12 (human IgG1 antibody b12, HIV gp120-specific) (antibody)
heavy: not shown
light: EIVLTQSPGTLSLSPGERATFSCRSSHSIRSRRVAWYQHKPGQAPRLVIHGVSNRASGISDRFSGSGSGTDFTLTITRVEPEDFALYYCQVYGASSYTFGQGTKLERKRTVAAPSVFIFPPSDEQLKSGTASVVCLLNNFYPREAKVQWKVDNALQSGNSQESVTEQDSKDSTYSLSSTLTLSKADYEKHKVYACEVTHQGLSSPVTKSFNRGEC
notes: also called IgG-b12
Consider B2, for which, in assay [4], the binding result is “binds”.

B3: IgG1-CAMPATH-1H-E430G-K439E with introduced mutation G237A (antibody, name in EU numbering)
heavy: QVQLQESGPGLVRPSQTLSLTCTVSGFTFTDFYMNWVRQPPGRGLEWIGFIRDKAKGYTTEYNPSVKGRVTMLVDTSKNQFSLRLSSVTAADTAVYYCAREGHTAAPFDYWGQGSLVTVSSASTKGPSVFPLAPSSKSTSGGTAALGCLVKDYFPEPVTVSWNSGALTSGVHTFPAVLQSSGLYSLSSVVTVPSSSLGTQTYICNVNHKPSNTKVDKRVEPKSCDKTHTCPPCPAPELLGAPSVFLFPPKPKDTLMISRTPEVTCVVVDVSHEDPEVKFNWYVDGVEVHNAKTKPREEQYNSTYRVVSVLTVLHQDWLNGKEYKCKVSNKALPAPIEKTISKAKGQPREPQVYTLPPSREEMTKNQVSLTCLVKGFYPSDIAVEWESNGQPENNYKTTPPVLDSDGSFFLYSKLTVDKSRWQQGNVFSCSVMHGALHNHYTQESLSLSPGK
light: not shown
notes: also called IgG1-CAMPATH-1H-E430G-K439E-G237A
Take B3: the binding result in assay [1] and in assay [3] was “no binding (tested: 20 µg/mL)” in each case.

B4: IgG1-Campath-E430G I253K/S440K (antibody)
heavy: B3 heavy with A241G, I257K, E443K, S444K
light: not shown
notes: also called IgG1-CAMPATH-1H-E430G-S440K with I253K; constant region IgG1m(f)-I253K-E430G-S440K
Consider B4, for which the binding result in assay [5] is given as “no binding (tested: 40 µg/mL)”.

B5: IgG1-Campath-E430G H310R/S440K (antibody)
heavy: B3 heavy with A241G, H314R, E443K, S444K
light: not shown
notes: also called IgG1-CAMPATH-1H-E430G-S440K with H310R; constant region IgG1m(f)-H310R-E430G-S440K
Take B5: the binding result in assay [5] is listed as “no binding (tested: 40 µg/mL)”.

B6: IgG1-Campath-E430G H310D/K439E (antibody)
heavy: B3 heavy with A241G, H314D
light: not shown
notes: also called IgG1-CAMPATH-1H-E430G-K439E with H310D; constant region IgG1m(f)-H310D-E430G-K439E
In the case of B6, the binding result in assay [5] was “no binding (tested: 40 µg/mL)”.

B7: IgG1-Campath-E430G I253R/S440K (antibody)
heavy: B3 heavy with A241G, I257R, E443K, S444K
light: not shown
notes: also called IgG1-CAMPATH-1H-E430G-S440K with I253R; constant region IgG1m(f)-I253R-E430G-S440K
As for B7, the binding result in assay [5] was “no binding (tested: 40 µg/mL)”.

B8: IgG1-Campath-E430G I253G/K439E (antibody)
heavy: B3 heavy with A241G, I257G
light: not shown
notes: also called IgG1-CAMPATH-1H-E430G-K439E with I253G; constant region IgG1m(f)-I253G-E430G-K439E
For B8, in assay [5], the binding result was “no binding (tested: 40 µg/mL)”.
